Assay results taken from patent US20240239878A1 (SHANGHAI QILU PHARMACEUTICAL RESEARCH AND DEVELOPMENT CENTRE, published 2024).

Molecular target: T1, human DLL3 on SHP-77 cells (human, UniProt Q9NYJ7 27-618)
T1 construct: also called DLL3-expressing cells (SHP-77)
T1 sequence: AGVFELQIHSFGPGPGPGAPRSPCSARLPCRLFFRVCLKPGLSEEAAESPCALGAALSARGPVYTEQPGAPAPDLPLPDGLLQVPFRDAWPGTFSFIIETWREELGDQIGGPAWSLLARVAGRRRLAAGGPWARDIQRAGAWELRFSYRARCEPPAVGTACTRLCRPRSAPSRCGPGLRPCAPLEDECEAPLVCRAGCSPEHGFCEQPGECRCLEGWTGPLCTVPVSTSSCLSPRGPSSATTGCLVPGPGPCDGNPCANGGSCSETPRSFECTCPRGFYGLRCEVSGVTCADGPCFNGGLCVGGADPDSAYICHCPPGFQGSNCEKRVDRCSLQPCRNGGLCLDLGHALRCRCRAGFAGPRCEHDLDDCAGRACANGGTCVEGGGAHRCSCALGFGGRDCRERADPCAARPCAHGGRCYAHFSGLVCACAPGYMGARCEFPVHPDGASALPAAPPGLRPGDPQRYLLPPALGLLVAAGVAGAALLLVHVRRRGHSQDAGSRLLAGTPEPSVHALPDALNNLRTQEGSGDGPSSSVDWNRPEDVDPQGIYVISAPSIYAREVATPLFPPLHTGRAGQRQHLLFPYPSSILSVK
Test: flow cytometry, SHP-77 cells

B1: hDLL3-3-1 camelid-derived humanized anti-DLL3 antibody (antibody, human IgG1, V domains shown)
VH: EVQLVESGGGLVQPGGSLRLSCAASTYTISSGYMGWFRQAPGKEREGVAAIYIGGSTTLYADSVKGRFTISRDNSKNTLYLQMNSLRAEDTAVYYCAAQLRPNSAYHPLDGRKYNYWGQGTLVTVSS
EC50: 0.068 nM | Top MFI: 1080 MFI
